# Target: the molecule itself
# Assay: SEC-MALS
protein,measurement,value
G domain of SEPT7 (domain or fragment) YRKSVKRGFEFTLMVVGESGLGKSTLINSLFLTDLYSPEYPGPSHRIKKTVQVEQSKVLIKEGGVQLLLTIVDTPGFGDAVDNSNCWQPVIDYIDSKFEDYLNAESRVNRRQMPDNRVQCCLYFIAPSGHGLKPLDIEFMKRLHEKVNIIPLIAKADTLTPEECQQFKKQIMKEIQEHKIKIYEFPETDDEEENKLVKKIKDRLPLAVVGSNTIIEVNGKRVRGRQYPWGVAEVENGEHCDFTILRNMLIRTHMQDLKDVTNNVHYENYRSRKLAAVT,stoichiometry N,2

# Reference: paper doi:10.1101/2020.07.08.161463 (bioRxiv, 2020)
